Biological target: dnm1l_human DNM1L (UniProt O00429)
Sequence (O00429 whole entry): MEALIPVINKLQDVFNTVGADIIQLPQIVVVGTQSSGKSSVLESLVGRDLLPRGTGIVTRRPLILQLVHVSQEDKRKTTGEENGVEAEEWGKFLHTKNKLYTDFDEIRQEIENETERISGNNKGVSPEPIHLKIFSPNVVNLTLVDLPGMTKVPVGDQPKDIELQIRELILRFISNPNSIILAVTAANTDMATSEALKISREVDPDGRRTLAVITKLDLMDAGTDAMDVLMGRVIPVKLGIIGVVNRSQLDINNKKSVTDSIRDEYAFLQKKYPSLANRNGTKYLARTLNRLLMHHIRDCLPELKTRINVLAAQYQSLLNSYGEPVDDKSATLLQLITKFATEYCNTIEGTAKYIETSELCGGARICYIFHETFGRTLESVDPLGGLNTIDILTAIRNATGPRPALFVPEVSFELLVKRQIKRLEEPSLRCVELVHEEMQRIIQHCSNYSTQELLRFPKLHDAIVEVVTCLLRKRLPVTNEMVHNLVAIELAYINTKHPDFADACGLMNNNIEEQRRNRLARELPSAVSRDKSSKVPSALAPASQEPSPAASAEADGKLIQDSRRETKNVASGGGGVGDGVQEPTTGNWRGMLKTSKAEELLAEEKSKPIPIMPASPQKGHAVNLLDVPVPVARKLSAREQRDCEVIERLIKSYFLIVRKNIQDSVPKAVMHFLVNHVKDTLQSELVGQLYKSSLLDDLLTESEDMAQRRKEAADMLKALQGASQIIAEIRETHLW

Substance: Leucine-rich repeat serine/threonine-protein kinase 2 (Homo sapiens), Q5S007 K1906A;D1994A;D2017A
- effect of a mutation on the interaction: decreasing interaction

Source: IntAct's records for PubMed 23813973
